Seven molecules from patent US20190151401A1 (UNIVERSITY OF BRITISH COLUMBIA, published 2019) can be followed below.

Assay [1] has as its target T1, A-beta42 oligomers (synthetic, commercially prepared, SynAging SAS) (human). Briefly: cell-based or functional assay.
For assay [2], the target named is T2, cyclo(CGQKLVG) conjugated to BSA (also: conjugated to BSA).
T2 construct: BSA carrier is not written as a chain
T2 peptide: cyclo(CGQKLVG)
As to the kind of experiment: ELISA and SPR on peptide-BSA conjugates.

Assay [3] concerns the target T3, cyclo(CGHHQKG) conjugated to BSA (also: conjugated to BSA).
T3 construct: HHQK are A-beta residues 13-16; C and G residues are linker; BSA carrier is not written as a chain; also called Cyclo-BSA
T3 peptide: cyclo(CGHHQKG)
As to the kind of experiment: ELISA and SPR on peptide-BSA conjugates.

The target in assay [4] is T1, A-beta42 oligomers (synthetic, …). As to the kind of experiment: ProteOn biosensor, antibody captured or amine-coupled on GLM chip, AbO 12.3 nM to 1 uM; approximate kinetic value.
In assay [5] the target is T3, cyclo(CGHHQKG) conjugated to BSA. As to the kind of experiment: ProteOn biosensor, antibody amine-coupled on GLH chip, cyclo-BSA 111 pM to 9 nM. The protocol:
Cyclo-BSA 3-fold dilutions were used from 9 nM to 111 pM. Assay buffer was PBS-E+0.05% Tween+10 mg/ml BSA.

Assay [6] concerns the target T4, cyclo(CGHDSGG) conjugated to BSA (also: conjugated to BSA).
T4 construct: BSA carrier is not written as a chain
T4 peptide: cyclo(CGHDSGG)
As to the kind of experiment: ELISA and SPR on peptide-BSA conjugates. Background: ELISA stands for enzyme-linked immunosorbent assay.

T1 sequence (peptide, as listed by the source): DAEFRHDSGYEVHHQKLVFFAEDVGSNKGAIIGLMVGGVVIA

B1: antibody 305-61 (IgG3, kappa), raised against cyclo(CGQKLVG) (antibody, V domains shown)
VH: QVQLQQSGAELVRPGASVTLSCKASGYTFTDYEMHWVKQTPVHGLEWIGAIDPETGDTAYNQEFKGKATLTADKSSSTAYMELRSLTSEDSAVYYCTSPIYYDYDWFAYWGHGTLVTVSA
VL: DIVMSQSPSSLAVSAGEKVTMSCKSSQSLLNNRTRKNYLAWYQQKPGQSPKLLIYWASTRESGVPDRFTGSGSGTDFTLTISSVQAEDLAVYYCKQSYNLRTFGGGTKLEIKR
notes: Mouse IgG3/kappa; Entries as printed include the leader peptide and a few constant-region residues; also called 7E9.1
In the case of B1, in assay [1], the “remaining cell viability at a molar ratio of 1:2 (AβO:AB1)” value is 80.1 % of control. In assay [2], the binding result is “binds”.

B2: antibody 301-11 (IgG3, kappa), raised against cyclo(CGHHQKG) (antibody, V domains shown)
VH: EVQLVESGGGLVKPGGSLKLSCAASGFTFSDYYMYWVRQTPEKRLEWVATISDGGSYTSYPDSVKGRFTISRDNAKNNLYLQMSSLRSEDTAMYYCARDYYGSSSYTSGFAYWGQGTLVTVSA
VL: DIVMSQSPSSLAVSTGEKVTMSCKSSQSLLNSRTRKNYLAWYQQKPGQSPKLLIYWASTRESGVPDRFTGSGSGTDFTLTISSVQAEDLAVYYCKQSYNLYTFGGGTKLEIK
notes: Mouse IgG3/kappa; Entries as printed include the leader peptide
With B2, the binding result in assay [3] is recorded as “binds”.

B3: antibody 301-17 (hybridoma-purified, IgG3, kappa), raised against cyclo(CGHHQKG) (antibody, V domains shown)
VH: QVQLQQPGAELVKPGASVKMSCKASGYSFTSYWINWVKQRPGQGLEWIGDVHPGRGVSTYNAKFKSKATLTLDTSSSTAYMQLSSLTSEDSAVYYCSRSHGNTYWFFDVWGAGTTVTVSS
VL: DVLMTQTPLSLPVSLGDQASISCRSSQSIVHSNGNTYLEWYLQKPGQSPKLLIYKVSNRFSGVPDRFSGSGSGTDFTLKISRVEAEDLGVYYCFQGSHVPFTFGSGTKLEIKR
notes: Mouse IgG3/kappa
By Kd is commonly meant the free concentration of one partner at which half of the binding sites on the other are occupied at equilibrium, for simple one-to-one binding. A low value points to higher affinity. Take B3: the Kd in assay [4] is ~26.9 nM.

B4: recombinant 301-17 IgG2a (antibody, V domains shown)
VH: QVQLQQPGAELVKPGASVKMSCKASGYSFTSYWINWVKQRPGQGLEWIGDVHPGRGVSTYNAKFKSKATLTLDTSSSTAYMQLSSLTSEDSAVYYCSRSHGNTYWFFDVWGAGTTVTVSS
VL: DVLMTQTPLSLPVSLGDQASISCRSSQSIVHSNGNTYLEWYLQKPGQSPKLLIYKVSNRFSGVPDRFSGSGSGTDFTLKISRVEAEDLGVYYCFQGSHVPFTFGSGTKLEIKR
Turning to B4, the dissociation constant (Kd) was ~0.017 nM in assay [5] and 16.2 to 19.5 nM in assay [4].

B5: antibody 305-59 (IgG1, kappa), raised against cyclo(CGQKLVG) (antibody, V domains shown)
VH: EVQLQQSGAELVKPGASVKLSCTVSGFNIKDTYVHWVKQRPEQGLEWIGRIAPASGNTKYAPNFQDKATITADTSSNTAYLQLNSLTSEDTAVYYCARHVYWGQGTLVTVSA
VL: SIVMTQTPKFLLVSAGDRVTITCKASQSVSNDVVWYQQKPGQSPKLLIYYASNRYTGVPDRFTGSGYGTDFTFTISTVQAEDLAVYFCQQDYISPYTFGGGTKLEIK
notes: Mouse IgG1/kappa; Entries as printed include the leader peptide; also called 59 (5G1)
B5: the binding result in assay [2] is listed as “binds”.

B6: antibody 303-25, raised against cyclo(CGHDSGG) (antibody, V domains shown)
VH: QVQLQQPGAELVRPGASVKLSCKASGYTFTSYWMNWVKQRPGQGLEWIGMIDPSDSQTHYNQMFKDKATLTVDKSSSTAYLQLSSLTSEDSAVYYCSRGGYWGQGTTLTVSS
VL: DIQMTQSPSSLSASLGGKVTITCKASQDINNYIAWYQHKPGKGPRQLIYYTSTLQPGIPSRFSGSGSGRDYSFTISDLEPEDIATYYCLQYDNLWTFGGGTKLEIK
notes: Mouse, kappa; Entries as printed include the leader peptide
As to B6, the “remaining cell viability at a molar ratio of 1:2 (AβO:AB1)” value in assay [1] is 88.8 % of control. Also, the binding result in assay [6] was “binds”.

B7: antibody 305-62 (IgG1, kappa), raised against cyclo(CGQKLVG) (antibody, V domains shown)
VH: QVTLKESGPGILKPSQTLSLTCSFSGFSLSTSGMGVGWIRQPSGKGLEWLAHIWWDDDKYYNPSLKSQLTISKDTSRNQVFLKITSVDTADTATYYCARSITTVVATPFDYWGQGTTLTVSS
VL: DIVMTQSQKFMSTSVGDRVSITCKASQNVRSAVAWYQQKPGQSPKALIYLASNRHTGVPDRFTGSGSGTDFTLTISNVHSEDLTDYFCLQHWNSPFTFGGGTKLEIKR
notes: Mouse IgG1/kappa; Entries as printed include the leader peptide and a few constant-region residues
For B7, the binding result in assay [2] is recorded as “binds”.
